Experimental data taken from US20140274782A1, “AFFINITY REAGENTS AND METHODS FOR DETECTION, PURIFICATION, AND PROTEOMIC ANALYSIS OF METHYLATED PROTEINS” (The Board of Trustees of the Leland Stanford Junior …, priority 2013, published 2014).

T1: G9a and GLP (Homo sapiens, UniProt Q96KQ7+Q9H9B1)
T1 sequence (Q96KQ7 2-1210 limits assumed): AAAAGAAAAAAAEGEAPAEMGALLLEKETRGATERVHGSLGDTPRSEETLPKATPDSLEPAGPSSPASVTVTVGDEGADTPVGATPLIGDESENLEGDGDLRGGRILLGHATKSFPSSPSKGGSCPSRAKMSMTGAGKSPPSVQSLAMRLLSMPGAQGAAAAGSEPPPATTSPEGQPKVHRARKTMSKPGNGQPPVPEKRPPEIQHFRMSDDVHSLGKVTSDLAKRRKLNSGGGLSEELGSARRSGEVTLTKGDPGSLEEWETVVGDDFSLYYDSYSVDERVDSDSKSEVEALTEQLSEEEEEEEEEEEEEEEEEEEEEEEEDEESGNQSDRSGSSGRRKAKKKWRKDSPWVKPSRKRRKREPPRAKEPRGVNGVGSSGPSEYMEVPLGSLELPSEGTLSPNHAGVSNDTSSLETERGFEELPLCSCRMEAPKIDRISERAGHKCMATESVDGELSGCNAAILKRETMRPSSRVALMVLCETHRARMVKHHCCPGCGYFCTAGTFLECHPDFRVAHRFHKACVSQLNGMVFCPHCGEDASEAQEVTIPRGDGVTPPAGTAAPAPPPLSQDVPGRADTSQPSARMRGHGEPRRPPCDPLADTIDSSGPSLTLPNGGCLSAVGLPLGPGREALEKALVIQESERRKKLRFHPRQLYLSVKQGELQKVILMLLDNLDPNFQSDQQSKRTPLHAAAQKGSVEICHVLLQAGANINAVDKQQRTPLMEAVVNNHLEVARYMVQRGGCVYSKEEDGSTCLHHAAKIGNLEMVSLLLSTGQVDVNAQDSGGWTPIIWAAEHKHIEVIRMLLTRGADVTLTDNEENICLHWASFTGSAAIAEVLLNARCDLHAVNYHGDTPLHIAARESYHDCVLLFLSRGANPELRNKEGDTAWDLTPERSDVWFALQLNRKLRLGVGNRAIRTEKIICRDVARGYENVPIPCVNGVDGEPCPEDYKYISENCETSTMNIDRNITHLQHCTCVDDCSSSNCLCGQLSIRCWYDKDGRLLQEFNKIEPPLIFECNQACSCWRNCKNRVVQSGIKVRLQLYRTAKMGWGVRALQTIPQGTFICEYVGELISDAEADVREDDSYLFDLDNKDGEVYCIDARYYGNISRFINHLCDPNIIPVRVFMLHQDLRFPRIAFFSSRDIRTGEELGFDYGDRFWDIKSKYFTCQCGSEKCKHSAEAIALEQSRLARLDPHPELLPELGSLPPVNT
T1 sequence (Q9H9B1 2-1298 limits assumed): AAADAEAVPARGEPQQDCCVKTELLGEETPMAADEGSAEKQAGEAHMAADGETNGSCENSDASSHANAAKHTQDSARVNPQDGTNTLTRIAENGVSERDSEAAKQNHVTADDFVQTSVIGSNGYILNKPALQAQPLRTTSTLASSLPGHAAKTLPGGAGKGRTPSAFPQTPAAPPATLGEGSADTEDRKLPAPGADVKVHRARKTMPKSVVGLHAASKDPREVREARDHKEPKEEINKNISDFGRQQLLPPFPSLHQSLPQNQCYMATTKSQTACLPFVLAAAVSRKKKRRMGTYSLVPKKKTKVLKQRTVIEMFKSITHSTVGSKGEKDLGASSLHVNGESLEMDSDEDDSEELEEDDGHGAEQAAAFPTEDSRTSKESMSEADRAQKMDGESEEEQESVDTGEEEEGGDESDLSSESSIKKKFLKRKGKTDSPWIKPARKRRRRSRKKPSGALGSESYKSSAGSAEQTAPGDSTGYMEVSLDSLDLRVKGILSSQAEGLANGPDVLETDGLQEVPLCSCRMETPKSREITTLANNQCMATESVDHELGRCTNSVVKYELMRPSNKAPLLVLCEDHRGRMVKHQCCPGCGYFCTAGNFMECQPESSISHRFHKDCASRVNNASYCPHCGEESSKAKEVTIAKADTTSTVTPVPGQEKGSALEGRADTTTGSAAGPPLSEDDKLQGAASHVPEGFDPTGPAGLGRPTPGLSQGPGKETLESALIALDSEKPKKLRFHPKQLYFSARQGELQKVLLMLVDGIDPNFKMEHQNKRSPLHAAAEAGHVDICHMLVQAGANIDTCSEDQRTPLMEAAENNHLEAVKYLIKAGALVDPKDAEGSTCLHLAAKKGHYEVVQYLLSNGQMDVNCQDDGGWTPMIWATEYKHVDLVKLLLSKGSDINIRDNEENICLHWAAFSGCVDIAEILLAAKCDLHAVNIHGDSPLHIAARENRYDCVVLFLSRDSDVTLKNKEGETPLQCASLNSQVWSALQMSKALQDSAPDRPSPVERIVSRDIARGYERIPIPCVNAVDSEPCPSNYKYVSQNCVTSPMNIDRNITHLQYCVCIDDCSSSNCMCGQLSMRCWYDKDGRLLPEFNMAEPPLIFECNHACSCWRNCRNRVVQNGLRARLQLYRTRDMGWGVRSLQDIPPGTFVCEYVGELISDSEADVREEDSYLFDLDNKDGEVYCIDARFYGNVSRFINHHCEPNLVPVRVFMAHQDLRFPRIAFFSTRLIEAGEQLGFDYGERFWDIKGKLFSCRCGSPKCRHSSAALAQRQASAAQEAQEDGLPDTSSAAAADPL

B1: MTHFD1 (protein, UniProt P11586 1-935, looked up)
C-1-tetrahydrofolate …: MAPAEILNGKEISAQIRARLKNQVTQLKEQVPGFTPRLAILQVGNRDDSNLYINVKLKAAEEIGIKATHIKLPRTTTESEVMKYITSLNEDSTVHGFLVQLPLDSENSINTEEVINAIAPEKDVDGLTSINAGKLARGDLNDCFIPCTPKGCLELIKETGVPIAGRHAVVVGRSKIVGAPMHDLLLWNNATVTTCHSKTAHLDEEVNKGDILVVATGQPEMVKGEWIKPGAIVIDCGINYVPDDKKPNGRKVVGDVAYDEAKERASFITPVPGGVGPMTVAMLMQSTVESAKRFLEKFKPGKWMIQYNNLNLKTPVPSDIDISRSCKPKPIGKLAREIGLLSEEVELYGETKAKVLLSALERLKHRPDGKYVVVTGITPTPLGEGKSTTTIGLVQALGAHLYQNVFACVRQPSQGPTFGIKGGAAGGGYSQVIPMEEFNLHLTGDIHAITAANNLVAAAIDARIFHELTQTDKALFNRLVPSVNGVRRFSDIQIRRLKRLGIEKTDPTTLTDEEINRFARLDIDPETITWQRVLDTNDRFLRKITIGQAPTEKGHTRTAQFDISVASEIMAVLALTTSLEDMRERLGKMVVASSKKGEPVSAEDLGVSGALTVLMKDAIKPNLMQTLEGTPVFVHAGPFANIAHGNSSIIADRIALKLVGPEGFVVTEAGFGADIGMEKFFNIKCRYSGLCPHVVVLVATVRALKMHGGGPTVTAGLPLPKAYIQENLELVEKGFSNLKKQIENARMFGIPVVVAVNAFKTDTESELDLISRLSREHGAFDAVKCTHWAEGGKGALALAQAVQRAAQAPSSFQLLYDLKLPVEDKIRIIAQKIYGADDIELLPEAQHKAEVYTKQGFGNLPICMAKTHLSLSHNPEQKGVPTGFILPIRDIRASVGAGFLYPLVGTMSTMPGLPTRPCFYDIDLDPETEQVNGLF
B2: DRG1 (protein, UniProt Q9Y295 2-367, looked up)
Developmentally-regulated …: SSTLAKIAEIEAEMARTQKNKATAHHLGLLKARLAKLRRELITPKGGGGGGPGEGFDVAKTGDARIGFVGFPSVGKSTLLSNLAGVYSEVAAYEFTTLTTVPGVIRYKGAKIQLLDLPGIIEGAKDGKGRGRQVIAVARTCNLILIVLDVLKPLGHKKIIENELEGFGIRLNSKPPNIGFKKKDKGGINLTATCPQSELDAETVKSILAEYKIHNADVTLRSDATADDLIDVVEGNRVYIPCIYVLNKIDQISIEELDIIYKVPHCVPISAHHRWNFDDLLEKIWDYLKLVRIYTKPKGQLPDYTSPVVLPYSRTTVEDFCMKIHKNLIKEFKYALVWGLSVKHNPQKVGKDHTLEDEDVIQIVKK
B3: PABPC4 (protein, UniProt Q13310 1-644, looked up)
Polyadenylate-binding protein …: MNAAASSYPMASLYVGDLHSDVTEAMLYEKFSPAGPVLSIRVCRDMITRRSLGYAYVNFQQPADAERALDTMNFDVIKGKPIRIMWSQRDPSLRKSGVGNVFIKNLDKSIDNKALYDTFSAFGNILSCKVVCDENGSKGYAFVHFETQEAADKAIEKMNGMLLNDRKVFVGRFKSRKEREAELGAKAKEFTNVYIKNFGEEVDDESLKELFSQFGKTLSVKVMRDPNGKSKGFGFVSYEKHEDANKAVEEMNGKEISGKIIFVGRAQKKVERQAELKRKFEQLKQERISRYQGVNLYIKNLDDTIDDEKLRKEFSPFGSITSAKVMLEDGRSKGFGFVCFSSPEEATKAVTEMNGRIVGSKPLYVALAQRKEERKAHLTNQYMQRVAGMRALPANAILNQFQPAAGGYFVPAVPQAQGRPPYYTPNQLAQMRPNPRWQQGGRPQGFQGMPSAIRQSGPRPTLRHLAPTGSECPDRLAMDFGGAGAAQQGLTDSCQSGGVPTAVQNLAPRAAVAAAAPRAVAPYKYASSVRSPHPAIQPLQAPQPAVHVQGQEPLTASMLAAAPPQEQKQMLGERLFPLIQTMHSNLAGKITGMLLEIDNSELLHMLESPESLRSKVDEAVAVLQAHHAKKEAAQKVGAVAAATS

target: T1, G9a and GLP; test: Triple SILAC pull-down after UNC0638 treatment of 293T cells, DMSO/UNC0638 ratio of protein captured by 3×MBT; assay type: cell-based; design: cells were treated for 24 hours with UNC0638 at 2.5 μM or DMSO vehicle control; endogenous in cells; host or cells: HEK 293T; settings: SILAC ratio DMSO/UNC0638 of protein pulled down with 3xMBT; UNC0638 in heavy SILAC media;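 note: mass spectrometry (Q-Exactive) SILAC quantitation, DMSO/UNC0638 ratio computed after subtracting 3×MBTD355N mutant pull-down background, only proteins with at least twofold 3×MBT over mutant signal considered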

Row | Molecule | Relative to UNC0638 UNC Heavy
1 | B1 | 0.05 log base 2
2 | B2 | 0.36 log base 2
3 | B3 | 0.16 log base 2

same assay, conditions: SILAC ratio DMSO/UNC0638 of protein pulled down with 3xMBT; UNC0638 in light SILAC media

Row | Molecule | Relative to UNC0638 UNC Light
4 | B1 | 0.23 log base 2
5 | B2 | −0.03 log base 2
6 | B3 | 0.17 log base 2

same assay, conditions: average of UNC Light and UNC Heavy experiments

Row | Molecule | Relative to UNC0638 Average
7 | B1 | 0.14 log base 2
8 | B2 | 0.16 log base 2
9 | B3 | 0.16 log base 2

system: 3×MBT domain of L3MBTL1; test: Triple SILAC pull-down, 3xMBT/3xMBTD355N ratio (cytoplasmic, nuclear and chromatin fractions of 293T cells); assay type: binding, human; settings: SILAC ratio, pull-down 3xMBT vs 3xMBTD355N; experiment with UNC0638 in heavy SILAC media;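 note: proteins quantified with MaxQuant, requiring at least two unique peptides and quantification in both label directions, normalized to the mean of proteins from a digested loading control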

Row | Molecule | 3xMBT/D355N UNC Heavy
10 | B1 | 1.99 log base 2
11 | B2 | 3.49 log base 2
12 | B3 | 2.94 log base 2

same assay, conditions: SILAC ratio, pull-down 3xMBT vs 3xMBTD355N; experiment with UNC0638 in light SILAC media

Row | Molecule | 3xMBT/D355N UNC Light
13 | B1 | 2.35 log base 2
14 | B2 | 3.66 log base 2
15 | B3 | 3.59 log base 2
